Substitutions are numbered along the chain they refer to. Names and notes keep the numbering of the source. “Also recorded” adds a separate entry of the source.
B1: T317A: modified iCasp9, T317A (protein)
chain: VDGFGDVGALESLRGNADLAYILSMEPCGHCLIINNVNFCRESGLRTRTGSNIDCEKLRRRFSSLHFMVEVKGDLTAKKMVLALLELARQDHGALDCCVVVILSHGCQASHLQFPGAVYGTDGCPVSVEKIVNIFNGTSCPSLGGKPKLFFIQACGGEQKDHGFEVASTSPEDESPGSNPEPDAAPFQEGLRTFDQLDAISSLPTPSDIFVSYSTFPGFVSWRDPKSGSWYVETLDDIFEQWAHSEDLQSLLLRVANAVSVKGIYKQMPGCFNFLRKKLFFKTSASRA
B2: D330A-S144A: modified iCasp9 double mutant (protein)
chain: B1 chain with S12A, A185T, D198A
B3: L329E: modified iCasp9, L329E (protein)
chain: B1 chain with A185T, L197E
B4: D330S: modified iCasp9, D330S (protein)
chain: B1 chain with A185T, D198S
B5: N405Q-S144A: modified iCasp9 double mutant (protein)
chain: B1 chain with S12A, A185T, N273Q
B6: D330A-S144D: modified iCasp9 double mutant (protein)
chain: B1 chain with S12D, A185T, D198A
B7: A316G: modified iCasp9, A316G (protein)
chain: B1 chain with A184G, A185T
B8: D330V: modified iCasp9, D330V (protein)
chain: B1 chain with A185T, D198V
B9: D330E: modified iCasp9, D330E (protein)
chain: B1 chain with A185T, D198E
B10: S196A: modified iCasp9, S196A (protein)
chain: B1 chain with S64A, A185T
B11: S183A: modified iCasp9, S183A (protein)
chain: B1 chain with S51A, A185T
B12: D330A-S196A: modified iCasp9 double mutant (protein)
chain: B1 chain with S64A, A185T, D198A
B13: D330N: modified iCasp9, D330N (protein)
chain: B1 chain with A185T, D198N
B14: D330G: modified iCasp9, D330G (protein)
chain: B1 chain with A185T, D198G
B15: D330A-S183A: modified iCasp9 double mutant (protein, UniProt P55211 1-416, looked up, variant D330A S183A)
chain: MDEADRRLLRRCRLRLVEELQVDQLWDALLSRELFRPHMIEDIQRAGSGSRRDQARQLIIDLETRGSQALPLFISCLEDTGQDMLASFLRTNRQAAKLSKPTLENLTPVVLRPEIRKPEVLRPETPRPVDIGSGGFGDVGALESLRGNADLAYILSMEPCGHCLIINNVNFCRESGLRTRTGANIDCEKLRRRFSSLHFMVEVKGDLTAKKMVLALLELAQQDHGALDCCVVVILSHGCQASHLQFPGAVYGTDGCPVSVEKIVNIFNGTSCPSLGGKPKLFFIQACGGEQKDHGFEVASTSPEDESPGSNPEPDATPFQEGLRTFDQLAAISSLPTPSDIFVSYSTFPGFVSWRDPKSGSWYVETLDDIFEQWAHSEDLQSLLLRVANAVSVKGIYKQMPGCFNFLRKKLFFKTS
modifications: FKBP12-F36V fusion (iCasp9), CARD deleted
notes: modified iCasp9 double mutant
B16: D330A-T317E: modified iCasp9 double mutant (protein, UniProt P55211 1-416, looked up, variant D330A T317E)
chain: B15 chain with A183S, T317E
modifications: FKBP12-F36V fusion (iCasp9), CARD deleted
notes: modified iCasp9 double mutant
B17: ^402GCFNF^406QPTFT: modified iCasp9, residues 402-406 replaced by Caspase-8 QPTFT (protein, UniProt P55211 1-416, looked up, variant G402Q C403P F404T N405F F406T)
chain: B15 chain with A183S, A330D, G402Q, C403P, F404T, N405F, F406T
modifications: FKBP12-F36V fusion (iCasp9), CARD deleted
notes: modified iCasp9, residues 402-406 replaced by Caspase-8 QPTFT
B18: N405Q-S144D: modified iCasp9 double mutant (protein, UniProt P55211 1-416, looked up, variant N405Q S144D)
chain: B15 chain with S144D, A183S, A330D, N405Q
modifications: FKBP12-F36V fusion (iCasp9), CARD deleted
notes: modified iCasp9 double mutant
B19: Y153A: modified iCasp9, Y153A (protein, UniProt P55211 1-416, looked up, variant Y153A)
chain: B15 chain with Y153A, A183S, A330D
modifications: FKBP12-F36V fusion (iCasp9), CARD deleted
B20: S307A: modified iCasp9, S307A (protein, UniProt P55211 1-416, looked up, variant S307A)
chain: B15 chain with A183S, S307A, A330D
modifications: FKBP12-F36V fusion (iCasp9), CARD deleted
B21: N405Qco: codon-optimized version of N405Q modified Caspase-9 (protein, UniProt P55211 1-416, looked up, variant N405Q)
chain: B15 chain with A183S, A330D, N405Q
modifications: FKBP12-F36V fusion (iCasp9), codon-optimized
B22: D330A-Y153F: modified iCasp9 double mutant (protein, UniProt P55211 1-416, looked up, variant D330A Y153F)
chain: B15 chain with Y153F, A183S
modifications: FKBP12-F36V fusion (iCasp9), CARD deleted
notes: modified iCasp9 double mutant
B23: N405Q-S144Aco: codon-optimized double mutant, class predicted (protein, UniProt P55211 1-416, looked up, variant N405Q S144A)
chain: B15 chain with S144A, A183S, A330D, N405Q
modifications: FKBP12-F36V fusion (iCasp9), codon-optimized
notes: codon-optimized double mutant, class predicted

system: HEK293T/16 cells; assay: Secreted alkaline phosphatase (SEAP)-based surrogate killing assay of iCasp9 mutants; format: cell-based, human; settings: SEAP assay without AP1903
Experimental: Early passage HEK293T/16 cells (ATCC, Manassas, Va.) were maintained in IMDM, GlutaMAX™ (Life Technologies, Carlsbad, Calif.) supplemented with 10% FBS, 100 U/mL penicillin, and 100 […] until transfection in a humidified, 37° C., 5% CO2/95% air atmosphere. Cells in logarithmic-phase growth were transiently transfected with 800 ng to 2 μg of expression plasmid encoding iCasp9 mutants and 500 ng of an expression plasmid encoding SRα promoter driven SEAP per million cells in 15-mL conical tubes. […] GeneJammer® Transfection Reagent at a ratio of 3 μl per ug of plasmid DNA was used to transiently transfect HEK293T/16 cells in the absence of antibiotics. 100 μl or 2 mL of the transfection mixture was added to each well in 96-well or 6-well plate, respectively.
Briefly, after 65° C. heat denaturation for 45 minutes to reduce background caused by endogenous (and serum-derived) alkaline phosphatases that are sensitive to heat, 5 μl of supernatants was added to 95 μl of PBS and added to 100 μl of substrate buffer, containing 1 μl of 100 mM 4-methylumbelliferyl phosphate (4-MUP; Sigma, St. Louis, Mo.) re-suspended in 2 M diethanolamine. Hydrolysis of 4-MUP by SEAP produces a fluorescent […] with excitation/emission (355/460 nm), which can be easily measured. Assays were performed in black opaque 96-well plates to minimize fluorescence leakage between wells. […] of the mixture was seeded onto each well of a 96-well plate. […] For the assay, 4-methylumbelliferyl phosphate substrate was hydrolyzed by SEAP to 4-methylumbelliferon, a metabolite that can be excited with 364 nm and detected with an emission filter of 448 nm. Since SEAP is used as a marker for cell viability, reduced SEAP reading corresponds with increased iCaspase-9 activities.

Molecule | Basal Activity (relative to wild type/unmodified Caspase-9)
B1 | lower basal activity; also recorded: reduce basal activity; also recorded: Decreased
B2 | Decreased
B3 | Decreased
B4 | less basal activity than wild type Caspase-9; also recorded: Decreased
B5 | Decreased
B6 | Decreased
B7 | lower basal activity; also recorded: Decreased
B8 | less basal activity than wild type Caspase-9; also recorded: Decreased
B9 | less basal activity than wild type Caspase-9; also recorded: Decreased
B10 | Decreased
B11 | Decreased
B12 | Decreased
B13 | less basal activity than wild type Caspase-9; also recorded: Decreased
B14 | less basal activity than wild type Caspase-9; also recorded: Decreased
B15 | Decreased
B16 | dead
B17 | dead
B18 | Decreased
B19 | Decreased
B20 | Decreased
B21 | Decreased
B22 | dead

same assay, conditions: marked '*, predicated'

Molecule | Basal Activity (relative to wild type), predicted mutants (*)
B23 | Decreased

From patent US20230065562A1, “DUAL CONTROLS FOR THERAPEUTIC CELL ACTIVATION OR ELIMINATION” (Bellicum Pharmaceuticals, Inc., priority 2015, published 2023)
